Data taken from article PMC3014449 (2010).
Positions of bridges follow the written chain, without caps; N, C: chain ends. Non-standard residues stand in square brackets, D forms with d. Trp(1-Me) = Cn1cc(C[C@H](N)C(=O)O)c2ccccc21; NMeI = CC[C@H](C)[C@H](NC)C(=O)O; Sar = CNCC(=O)O

Target: C3b C3b (Homo sapiens, UniProt P01024)
Test: SPR

C3b C3b, sequence (P01024 566-670): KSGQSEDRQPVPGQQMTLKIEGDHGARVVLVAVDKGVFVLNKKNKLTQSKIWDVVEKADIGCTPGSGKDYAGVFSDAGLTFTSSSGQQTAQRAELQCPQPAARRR

- Kd: 2.3 nM
B1: compstatin analogue 21 (peptide)
chain: Ac-ICV[Trp(1-Me)]QDW[Sar]AHRC[NMeI]-NH2
modifications: disulfide 2-12
SMILES: CC[C@H](C)[C@H](NC(C)=O)C(=O)N[C@H]1CSSC[C@@H](C(=O)N(C)[C@H](C(N)=O)[C@@H](C)CC)NC(=O)[C@H](CCCNC(=N)N)NC(=O)[C@H](Cc2c[nH]cn2)NC(=O)[C@H](C)NC(=O)CN(C)C(=O)[C@H](Cc2c[nH]c3ccccc23)NC(=O)[C@H](CC(=O)O)NC(=O)[C@H](CCC(N)=O)NC(=O)[C@H](Cc2cn(C)c3ccccc23)NC(=O)[C@H](C(C)C)NC1=O
